The values that follow come from patent publication US20190241662A1 (ADAGENE, published 2019).

Where two headings read alike, the source gives them in different places.

In one test the target is T1, human CD86 (human, UniProt P42081 24-247, limits assumed).
T1 construct: constructs not described; also called recombinant human CD86 fused with human Fc; CD86-Fc-Bio
T1 sequence (looked up): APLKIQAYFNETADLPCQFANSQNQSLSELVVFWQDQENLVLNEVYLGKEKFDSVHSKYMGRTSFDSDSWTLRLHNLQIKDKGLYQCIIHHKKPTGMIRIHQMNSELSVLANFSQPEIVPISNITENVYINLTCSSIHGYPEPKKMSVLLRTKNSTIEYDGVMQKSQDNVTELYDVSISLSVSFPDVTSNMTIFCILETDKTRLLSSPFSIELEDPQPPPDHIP
Put plainly: yeast-display flow cytometry, Normalized FACS Bound.

Another test addresses T2, mouse CD86 (mouse, UniProt P42082 24-244, limits assumed).
T2 sequence (looked up): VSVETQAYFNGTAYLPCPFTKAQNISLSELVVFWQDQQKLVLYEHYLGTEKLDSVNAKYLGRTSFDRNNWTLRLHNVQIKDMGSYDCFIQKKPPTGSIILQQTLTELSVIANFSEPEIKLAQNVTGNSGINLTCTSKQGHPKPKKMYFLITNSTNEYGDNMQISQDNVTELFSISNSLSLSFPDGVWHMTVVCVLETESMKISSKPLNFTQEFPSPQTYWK
Described as above.

The target in a further test is T3, human CD80 (human, UniProt P33681 35-242, limits assumed).
T3 construct: constructs not described; also called biotinylated CD80; CD80-Fc-Bio
T3 sequence (looked up): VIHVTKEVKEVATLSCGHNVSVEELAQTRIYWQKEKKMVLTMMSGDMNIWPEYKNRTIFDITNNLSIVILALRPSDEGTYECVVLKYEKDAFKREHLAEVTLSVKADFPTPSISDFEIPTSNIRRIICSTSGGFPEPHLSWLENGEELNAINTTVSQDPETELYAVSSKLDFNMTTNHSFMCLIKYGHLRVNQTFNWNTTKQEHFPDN
Described as above.

Test [1] has as its target T4, recombinant human CTLA4 fused with human Fc and His tag (human, UniProt P16410 36-162, limits assumed).
T4 construct: Coated in the CD80 ELISA, biotinylated and in solution in the CD86 ELISA; also called biotinylated human CTLA4 fused with human FC and His tag
T4 sequence (looked up): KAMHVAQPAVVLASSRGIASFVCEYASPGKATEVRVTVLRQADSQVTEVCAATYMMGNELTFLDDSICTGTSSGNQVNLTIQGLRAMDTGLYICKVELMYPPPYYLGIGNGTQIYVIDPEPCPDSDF
The test is described as follows: competition ELISA: plate-bound human CTLA4-Fc-His, biotinylated CD80 as blocked ligand. The method, then:
Antibodies were then tested for their ability to block binding of CTLA4 to its cognate ligands CD80 and CD86 by ELISA. […] Plates were blocked with PBS supplemented with 2% (w/v) skim milk at 37° C. for 1 hour. […] Plates were washed four times, and 100 μL HRP-neutravidin (1:1000) was added to each well and incubated at 37° C. for 1 hour. Plates were washed as previously described, and 50 μL TMB substrate solution was added and incubated at room temperature for 5 minutes before the reaction was stopped by 50 μL sulfate acid (2M).

In test [2] the target is T5, full-length human CTLA4 expressed on cells (human, UniProt P16410 36-223).
T5 construct: whole, on cells; also called HEK293F/hCTLA-4 cells; HEK293F/hCTLA4 cells
T5 sequence (looked up): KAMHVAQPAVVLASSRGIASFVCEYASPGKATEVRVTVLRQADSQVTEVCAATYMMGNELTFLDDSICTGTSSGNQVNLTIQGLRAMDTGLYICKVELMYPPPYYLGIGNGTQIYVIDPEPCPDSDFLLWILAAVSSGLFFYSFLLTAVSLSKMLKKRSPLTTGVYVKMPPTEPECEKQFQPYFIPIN
Put plainly: flow cytometry, transfected HEK293F cells, antibody concentration not given. The method, then:
The affinities of the antibodies were also assessed against human and mouse CTLA4 transiently expressed on the surface of HEK293F cells (FIG. 2). Briefly, HEK293F cells were transfected with a plasmid expressing full-length human, monkey or mouse CTLA4 from a bicistronic IRES vector also encoding EGFP, and EGFP expression was used to identify the transfected cells. After 48 hours, the mammalian cell suspension (2×10⁵/well) was transferred to an Eppendorf tube, centrifuged, the supernatant was discarded, the cells were resuspended with 1 mL PBSA (to a density is 4×10⁶ cells/mL), and added to a 96 well plate. […] The cells were then washed once prior to analysis by flow cytometry (Beckman® CytoFlex).

Test [3] deals with T5, full-length human CTLA4 expressed on …. Put plainly: flow cytometry blocking: HEK293F cells with human CTLA4, 100 nM antibody, then 100 nM CD80-Fc-Bio (blocked ligand); PBSA panel: Mean 157692, 26.3%. As for the experimental part: (§1) Antibodies were also tested for their ability to block binding of CTLA4 to its cognate ligands CD80 and CD86 by flow cytometry. The plasmid encoding full-length human CTLA4 was transiently expressed in HEK293F cells. Cells were washed with staining buffer (PBSA buffer including 1.76 mM KH₂PO₄, 10.14 mM Na₂HPO₄.12H₂O, 2.68 mM KCl, 136.89 mM NaCl and 1% BSA), and resuspended in staining buffer containing 100 nM test antibodies. […] Cells were washed once, and analyzed by CytoFlex flow cytometry.

Test [4] shares this target. The test is described as follows: flow cytometry blocking: HEK293F cells with human CTLA4, 100 nM antibody, then 100 nM CD86-Fc-Bio (blocked ligand); PBSA panel: Mean 10678, 12.2%. As for the experimental part:
as §1

Test [5] has as its target T6, recombinant human CTLA4-Fc (human, UniProt P16410 36-162).
T6 construct: also called human CTLA4 fused with human FC fragment; CTLA4-Fc (Sino Biological, 11159-H03H)
T6 sequence (looked up): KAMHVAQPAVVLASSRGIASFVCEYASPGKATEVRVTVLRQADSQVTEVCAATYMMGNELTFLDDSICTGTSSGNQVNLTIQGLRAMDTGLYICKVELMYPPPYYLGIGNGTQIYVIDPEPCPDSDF
The test is described as follows: ELISA on plate-coated recombinant human CTLA4-Fc, detection with HRP anti-human IgG (Fab specific). The method, then: (§2) Plates were blocked with PBS supplemented with 3% non-fat milk at 37° C. for 1 hour. After washing, 100 μL of 3-fold serial dilutions of antibodies were added to each well. After incubation at 37° C. for 1 hour, plates were washed four times, and 100 μL HRP conjugated anti-human IgG (Fab specific) (1:6000 dilution) was added to each well. Plates were incubated at 37° C. for 1 hour, washed four times, and then 50 μL TMB substrate solution was added to each well, and the plate was incubated at room temperature. […] The EC₅₀ was evaluated by fitting the ELISA data using the asymmetrical sigmoidal (five-parameter logistic equation) model of GraphPad Prism 6 software.

Test [6] concerns the target T6, recombinant human CTLA4-Fc. Put plainly: ELISA; EC50 divided by the EC50 of TY21580. The method, then:
as §2

Test [7] has as its target T6, recombinant human CTLA4-Fc. Put plainly: ELISA, coated human CTLA4-Fc (as in Example 8). The method, then:
as §2

The target of test [8] is T6, recombinant human CTLA4-Fc. Put plainly: ELISA, coated human CTLA4-Fc (as in Example 8). As for the experimental part: as §2
This is another data set of the same source.

B1: YLGIG105FVGMG (receptor, Homo sapiens, UniProt P16410 36-161, looked up)
CTLA4: KAMHVAQPAVVLASSRGIASFVCEYASPGKATEVRVTVLRQADSQVTEVCAATYMMGNELTFLDDSICTGTSSGNQVNLTIQGLRAMDTGLYICKVELMYPPPYFVGMGNGTQIYVIDPEPCPDSD
Take B1: the binding result with human CD86, with mouse CD86 and with human CD80 was “binds” throughout.

B2: human CTLA4 mutant ADSQVT42TNDQMT displayed on yeast (receptor)
chain: KAMHVAQPAVVLASSRGIASFVCEYASPGKATEVRVTVLRQTNDQMTEVCAATYMMGNELTFLDDSICTGTSSGNQVNLTIQGLRAMDTGLYICKVELMYPPPYYLGIGNGTQIYVIDPE
notes: also called human CC' loop motif changed to the mouse motif
On to B2, for which the binding result in the test with human CD86, in the test with mouse CD86 and in the test with human CD80 was “binds” in each case.

B3: human CTLA4 mutant LGI106AAA displayed on yeast (receptor)
chain: KAMHVAQPAVVLASSRGIASFVCEYASPGKATEVRVTVLRQADSQVTEVCAATYMMGNELTFLDDSICTGTSSGNQVNLTIQGLRAMDTGLYICKVELMYPPPYYAAAGNGTQIYVIDPE
Consider B3, for which the binding result in the test with human CD86, in the test with mouse CD86 and in the test with human CD80 was “binds” throughout.

B4: TY21587 (antibody, V domains shown)
VH: EVQLVESGGGLVQPGGSLRLSCAASGFTFSDYGIHWVRQAPGKGLEWIGEIYHSGSTYYSPSLKSRVTISRDNSKNTLYLQLNSLRAEDTAVYYCARDVAPGSSGYYDGFDFWGQGTLVTVSS
VL: DIQLTQSPSSLSASVGDRVTITCRASQGIGSSLAWYQQKPGKAPKLLIYDASNRATGIPSRFSGSGSGTDFTLTISSLQPEDFATYYCQQYDQWPPWTFGQGTKVEIK
notes: human IgG1 (hIgG1) from Fab hit B15722
On to B4, for which the “IC50 (read off the curve)” value in test [1] is ~30 nM. The “% of cells in upper right quadrant (Q2)” value in [2] turned out to be 23.6%. Moreover, in test [3], the “% of cells in upper right quadrant (CD80-positive) in the presence of the antibody” value worked out at 25.8% and the “Mean of the CD80 binding signal in the presence of the antibody” value was determined as 85700. Besides, in test [4], the “% of cells in upper right quadrant (CD86-positive) in the presence of the antibody” value worked out at 6.59% and the “Mean of the CD86 binding signal in the presence of the antibody” value was 5710.

B5: TY22563 (antibody, IgG1, V domains shown)
VH: EVQLVESGGGLVQPGGSLRLSCAASGYSISSGYHWSWIRQAPGKGLEWLARIDWDDDKYYSTSLKSRLTISRDNSKNTLYLQLNSLRAEDTAVYYCARSYVYFDYWGQGTLVTVSS
VL: EVGSYYSAYPACDSHYPYCQSSGRSAGGGGSPLGLAGSGGSDIQLTQSPSSLSASVGDRVTITCRASQSVRGRFLAWYQQKPGKAPKLLIYDASNRATGIPSRFSGSGSGTDFTLTISSLQPEDFATYYCQQSSSWPPTFGQGTKVEIKR
notes: IgG1
Consider B5, for which the “EC50 (read off the curve)” value in test [5] was ~60 nM.

B6: TY22566 (antibody, IgG1, V domains shown)
VH: EVQLVESGGGLVQPGGSLRLSCAASGYSISSGYHWSWIRQAPGKGLEWLARIDWDDDKYYSTSLKSRLTISRDNSKNTLYLQLNSLRAEDTAVYYCARSYVYFDYWGQGTLVTVSS
VL: EVGSYPNPASDCVPYYYACAYSGRSAGGGGSPLGLAGSGGSDIQLTQSPSSLSASVGDRVTITCRASQSVRGRFLAWYQQKPGKAPKLLIYDASNRATGIPSRFSGSGSGTDFTLTISSLQPEDFATYYCQQSSSWPPTFGQGTKVEIKR
notes: IgG1
Turning to B6, the “EC50 (read off the curve)” value in test [5] was ~200 nM.

B7: TY22775 (antibody, V domains shown)
VH: EVQLVESGGGLVQPGGSLRLSCAASGYSISSGYHWSWIRQAPGKGLEWLARIDWDDDKYYSTSLKSRLTISRDNSKNTLYLQLNSLRAEDTAVYYCARSYVYFDYWGQGTLVTVSS
VL: EVGHSDCDAFYPYCDSSGRSAGGGGTPLGLAGSGGSDIQLTQSPSSLSASVGDRVTITCRASQSVRGRFLAWYQQKPGKAPKLLIYDASNRATGIPSRFSGSGSGTDFTLTISSLQPEDFATYYCQQSSSWPPTFGQGTKVEIKR
For B7, the masking efficiency in test [6] is 168. The EC50 in test [7] was 37.3 nM.

B8: TY22864 (antibody, V domains shown)
VH: EVQLVESGGGLVQPGGSLRLSCAASGYSISSGYHWSWIRQAPGKGLEWLARIDWDDDKYYSTSLKSRLTISRDNSKNTLYLQLNSLRAEDTAVYYCARSYVYFDYWGQGTLVTVSS
VL: DIQLTQSPSSLSASVGDRVTITCRASQSVRGRFLAWYQQKPGKAPKLLIYDASNRATGIPSRFSGSGSGTDFTLTISSLQPEDFATYYCQQSSSWPPTFGQGTKVEIKR
As for B8, in test [8], the EC50 was determined as 117 nM.

B9: TY22871 (antibody, V domains shown)
VH: EVQLVESGGGLVQPGGSLRLSCAASGYSISSGYHWSWIRQAPGKGLEWLARIDWDDDKYYSTSLKSRLTISRDNSKNTLYLQLNSLRAEDTAVYYCARSYVYFDYWGQGTLVTVSS
VL: DIQLTQSPSSLSASVGDRVTITCRASQSVRGRFLAWYQQKPGKAPKLLIYDASNRATGIPSRFSGSGSGTDFTLTISSLQPEDFATYYCQQSSSWPPTFGQGTKVEIKR
With B9, in [8], the EC50 was 88.1 nM.

B10: TY22776 (antibody, V domains shown)
VH: EVQLVESGGGLVQPGGSLRLSCAASGYSISSGYHWSWIRQAPGKGLEWLARIDWDDDKYYSTSLKSRLTISRDNSKNTLYLQLNSLRAEDTAVYYCARSYVYFDYWGQGTLVTVSS
VL: EVGSSDCVPYYYACAYSGRSAGGGGTPLGLAGSGGSDIQLTQSPSSLSASVGDRVTITCRASQSVRGRFLAWYQQKPGKAPKLLIYDASNRATGIPSRFSGSGSGTDFTLTISSLQPEDFATYYCQQSSSWPPTFGQGTKVEIKR
Turning to B10, the masking efficiency in test [6] was 296. The EC50 in [7] came out at 65.9 nM.
